Measured values: paper PMC10784701

Target: RedM, N,N-dimethyltransferase of the reductasporine biosynthetic pathway
Assay: SEC; size-exclusion chromatography of purified RedM in solution (Fig. S3); conditions of this run not shown

**Q.** How did the stoichiometry N turn out when “RedM, N,N-dimethyltransferase of the reductasporine biosynthetic pathway (enzyme)” was run?
**A.** 2
